This passage reports EC50 results from article PMC6303327.

The target of assay [1] is Rfa3 OB domain (DBD-E), residues 1-99, without the C-terminal trimerisation helix (S. cerevisiae) (UniProt P26755). Kind of assay: MST; 50 nM NT-495-labelled DBD-E mixed with equal volumes of a dilution series of DBD-A; 20 mM Tris pH 7.5, 150 mM NaCl, 0.5 mM TCEP, 0.01% Tween-20, 0.1 mg/ml BSA; 25 °C; no ssDNA (black trace); apparent EC50 from the Hill equation.
Assay [2] shares this target. Kind of assay: MST; as the MST without ssDNA, but in the presence of excess ssDNA (dT10 at 2 µM in each binding reaction; grey trace); replicated twice; apparent EC50 from the Hill equation.

Rfa3 OB domain (DBD-E), residues 1-99, without the C-terminal trimerisation helix (S. cerevisiae), sequence (P26755 1-99): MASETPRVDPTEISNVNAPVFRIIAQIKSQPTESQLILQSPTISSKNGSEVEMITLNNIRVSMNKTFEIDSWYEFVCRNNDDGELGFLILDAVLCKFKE
Rfa1 DNA-binding domain A (DBD-A), residues 178-294, sequence (P22336 178-294): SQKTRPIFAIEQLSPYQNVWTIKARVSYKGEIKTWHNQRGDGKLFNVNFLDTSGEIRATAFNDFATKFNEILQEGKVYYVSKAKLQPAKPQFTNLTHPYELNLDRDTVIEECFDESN

As to “Rfa1 DNA-binding domain A (DBD-A), residues 178-294 (from UniProt P22336 178-294) (domain or fragment)”, the half-maximal effective concentration (EC50) (as a rule, the concentration at which the effect is half-maximal) in assay [1] is 96 µM; in assay [2], 84 µM.

On to “Rfa1 DNA-binding domain A (DBD-A), residues 178-294, phosphomimetic S178D mutant (from UniProt P22336 178-294) (domain or fragment)”, for which the figures for the EC50 in assay [1] and in assay [2] were 23 µM and 25 µM, respectively.
